Biological target: Complement C1q (Homo sapiens) (UniProt P02745+P02746+P02747)
Assay: filter
Conditions: 2'-NH2 C and U; MgPBS, 37 C; starting pool

Sequence of Complement C1q (Homo sapiens) (P02745 23-245, chain 1 of 3): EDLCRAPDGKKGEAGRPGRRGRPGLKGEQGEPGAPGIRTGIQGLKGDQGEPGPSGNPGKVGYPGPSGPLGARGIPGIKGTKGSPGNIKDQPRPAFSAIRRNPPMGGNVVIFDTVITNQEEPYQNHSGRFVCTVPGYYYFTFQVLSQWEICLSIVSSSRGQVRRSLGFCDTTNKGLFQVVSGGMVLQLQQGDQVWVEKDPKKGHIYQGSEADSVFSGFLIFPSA
Sequence of Complement C1q (Homo sapiens) (P02746 28-253, chain 2 of 3): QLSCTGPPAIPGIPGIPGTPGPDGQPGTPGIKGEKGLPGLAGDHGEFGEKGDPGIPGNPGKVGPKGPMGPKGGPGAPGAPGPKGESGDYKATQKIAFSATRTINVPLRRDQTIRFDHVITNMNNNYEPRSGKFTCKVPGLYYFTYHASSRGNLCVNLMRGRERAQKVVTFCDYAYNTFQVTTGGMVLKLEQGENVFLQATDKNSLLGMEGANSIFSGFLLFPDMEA
Sequence of Complement C1q (Homo sapiens) (P02747 29-245, chain 3 of 3): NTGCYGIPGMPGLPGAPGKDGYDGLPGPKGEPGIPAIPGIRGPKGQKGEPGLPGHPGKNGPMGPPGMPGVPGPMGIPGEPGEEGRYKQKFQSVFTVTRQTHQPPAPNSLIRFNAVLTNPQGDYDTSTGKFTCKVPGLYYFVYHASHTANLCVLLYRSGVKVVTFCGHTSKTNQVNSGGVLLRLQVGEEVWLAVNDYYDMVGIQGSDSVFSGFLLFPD

For “GGGAGGACGAUGCGGNNNNNNNNNNNNNNNNNNNNNNNNNNNNNNNNNNNNNNNNNNNNNNNNNNCAGACGACUCGCCCGA [random 50N7 2'-NH2 RNA pool]”, the Kd was 2.3 µM.

From patent US6140490
